Measurements reported in the MegaScale stability set (Tsuboyama et al. 2023).

B1: r11_951_TrROS_Hall (parent)
chain: KKKYVIKVYFEDTGKEVEIEAESKEEALEAAKRLAEELGLKIKKVEIYP

Variants of: B1
Assay: folding stability dG (cDNA display proteolysis); higher = more stable
Conditions: PBS, room temperature

Folding stability dG [kcal/mol]: each site, then its substitutions
A35: H 3.63, V 4.06, I 3.99, T 3.84, P 2.83, E 4.05, M 3.97, G 4.25, N 3.14, K 3.58, S 4.35, D 2.58, W 4.13, R 3.55, F 4.13, C 4.08, L 3.88, Q 3.9, Y 3.78
A31: P 3.02, V 4.45, G 4.15, F 4.48, D 0.894, L 4.21, W 4.25, K 2.42, H 2.62, N 1.73, I 4.2, Y 4.33, Q 2.81, R 2.47, S 4.2, C 4.18, E 2.11, T 4.01, M 4.4
A30: P 2.07, I 4.49, S 4.45, Q 4.44, E 4.31, Y 4.89, T 4.38, F 4.66, R 4.58, N 4.41, C 4.16, G 4.4, M 4.47, L 4.66, K 4.33, V 4.44, D 4.16, H 4.57
L38: K 4.2, M 4.56, R 4.34, W 4.52, P 2.86, I 4.29, H 4.13, G 3.85, N 4.15, C 4.07, E 3.89, V 4.3, Q 4.21, T 4.16, Y 4.53, S 4.28, A 4.52, D 3.39, F 4.42
K32: M 4.68, G 4.13, L 4.55, V 4.35, S 4.42, C 4.22, W 4.78, R 4.26, E 4.28, A 4.44, F 4.98, H 4.55, Y 4.9, T 4.41, N 4.51, D 4.21, P 3.09, Q 4.38, I 4.34
R33: F 4.38, H 4.18, T 4.18, C 4.17, M 4.32, Y 4.63, G 4.21, P 2.02, Q 4.02, I 4.28, E 4.03, S 4.2, D 4.09, W 4.65, V 4.22, N 4.22, L 4.23, K 4.39, A 4.04
E36: I 4.61, C 4.39, A 4.62, G 4.6, P 3.05, H 4.56, F 4.76, M 4.66, V 4.66, T 4.6, L 4.68, K 4.54, S 4.53, D 4.42, R 4.91, Q 4.66
V45: M 4.47, H 4.08, P 2.52, K 3.16, C 4.16, W 4.59, E 3.18, N 3.32, S 3.94, R 2.97, Y 4.45, L 4.08, T 4.16, G 2.79, A 3.96, F 4.48, I 3.98, Q 3.87, D 2.62
I42: S 2.64, G 2.51, Q 2.53, A 3.21, K 2.18, V 4.17, L 4.32, M 3.99, E 2.5, H 2.67, Y 3.75, W 4.05, D 2.38, T 2.88, R 2.53, F 4.01, P 3.23, N 2.55, C 3.57
K43: S 4.15, E 4.35, W 4.81, A 4.4, V 4.22, I 4.43, F 4.53, T 4.32, G 4.25, C 4.13, N 4.29, P 2.93, Q 4.26, H 4.33, M 4.44, L 4.36, R 4.64, D 4.29
E46: F 4.64, H 4.53, A 4.32, D 4.38, I 4.47, C 4.15, G 3.71
E37: S 4.71, M 4.67, I 4.61, N 4.42, F 4.73, T 4.61, Y 4.82, K 4.68, R 4.69, Q 4.77, V 4.6, A 4.67, L 4.55, C 4.94, G 4.55, H 4.72, P 2.86, D 4.29
L28: M 4.46, K 4.28, Q 4.31, Y 4.57, R 4.23, V 4.51, T 4.16, H 4.44, N 4.33, P 3.39, S 4.2, I 4.42, W 4.64
K41: N 4.28, I 4.19, C 4.33, R 4.62, A 4.33, W 4.11, D 4, Y 4.5, L 4.36, S 4.41, Q 4.02, F 4.44, H 4.22, T 4.32, E 4.16, G 4.07, M 4.38, V 4.34, P 4.25
E29: S 4.56, P 3.83, T 4.71, L 4.94, V 4.53, N 4.53, H 4.51, A 4.75, Q 4.22, I 4.48, C 4.58, M 4.77, R 4.64, K 4.53, G 4.29, D 4.44
G39: V 4.03, P 2.73, E 4.18, M 4.38, W 3.5, A 4.49, N 4.39, L 4.06, I 3.67, D 3.99, T 4, Q 4.37, C 4.25, K 4.53, H 4.31, R 4.43, Y 3.82, F 4.14, S 4.26
L34: V 4.51, E 3.68, W 4.57, A 4.16, Q 3.99, M 4.55, N 3.66, F 4.52, K 4.35, S 4.01, H 4.22, T 4.25, G 3.15, I 4.27, P 1.34, Y 4.45, D 2.95, R 4.32, C 3.85
L40: I 3.96, P 3.02, D 3.85, Y 4.88, H 4.12, C 3.95, S 3.9, T 3.92, G 3.56, W 4.72, A 4.02, V 4.1, M 4.31, N 3.66, K 3.93, Q 4.07, E 3.99, F 4.6, R 4.27
K44: M 4.31, S 4.42, T 4.17, F 4.3, H 4.47, W 4.24, D 3.95, Q 4.34, Y 4.34, P 2.69, C 4.11, N 4.41, A 4.26, E 4.25, V 4.17, G 4.12, I 4.21, L 4.14, R 4.4
